The source of these data is PMC6146036 (Frontiers in Molecular Neuroscience, 2018).

Entries after “also recorded” stand apart in the source; their conditions may differ.

The target of data set [1] is T1, human recombinant choline acetyltransferase (rChAT) (Homo sapiens, UniProt P28329).
T1 construct: made in house; host or cells: E. coli BL21 Rosetta2
T1 sequence (P28329 1-630 isoform P28329-3): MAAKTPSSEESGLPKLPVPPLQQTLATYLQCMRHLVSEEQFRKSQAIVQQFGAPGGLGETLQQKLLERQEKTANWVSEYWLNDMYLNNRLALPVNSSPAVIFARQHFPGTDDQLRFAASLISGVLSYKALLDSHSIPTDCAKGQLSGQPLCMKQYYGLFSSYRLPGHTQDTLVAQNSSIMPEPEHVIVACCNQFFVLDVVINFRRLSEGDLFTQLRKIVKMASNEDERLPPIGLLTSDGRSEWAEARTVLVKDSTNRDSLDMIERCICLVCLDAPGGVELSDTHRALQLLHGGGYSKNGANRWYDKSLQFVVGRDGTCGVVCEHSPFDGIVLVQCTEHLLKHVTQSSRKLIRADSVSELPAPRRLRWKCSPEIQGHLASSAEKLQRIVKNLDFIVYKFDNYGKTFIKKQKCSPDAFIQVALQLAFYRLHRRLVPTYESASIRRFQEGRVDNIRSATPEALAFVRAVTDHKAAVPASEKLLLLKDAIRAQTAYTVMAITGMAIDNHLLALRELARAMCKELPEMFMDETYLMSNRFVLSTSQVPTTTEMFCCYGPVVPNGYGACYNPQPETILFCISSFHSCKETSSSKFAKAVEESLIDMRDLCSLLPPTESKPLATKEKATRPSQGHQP
Kind of data set: Fluorometric in vitro ChAT activity assay (human rChAT, CPM read-out). To be noted: for direction of effect on ChAT activity at high concentrations: 0 to 3,800 ng/mL (0–833.3 nM), 1:2 dilutions, two independent experiments, Figure 2C; for difference in slopes of ChAT rate vs gelatin control: 6.4 ng/mL Aβ40 or 0.16 ng/mL Aβ42 (F = 21, p < 0.0001), linear regression; for effect on increases in ChAT activity at the higher Aβ concentration points: 160 and 800 ng/mL Aβ40, 100 ng/mL Aβ42, activity still higher than baseline; for concentration range giving the highest level of ChAT activation in the mixture: Aβ40:Aβ42 10:1 mixture, Figure 5C, with or without gelatin; for effect on ChAT activity at physiological concentrations: CSF concentrations ∼4–6.4 ng/mL Aβ40, ∼0.4–0.8 ng/mL Aβ42, Figures 2A,B. It is filed as biochemical. Here is the method: Recombinant ChAT was purified as described previously ([Kumar et al., 2016a], [2017]). Briefly, DYT media was inoculated with an O/N culture of E. coli BL21 Rosetta2 transformed with pProExHTa-ChAT (a gift from Dr. Brian Shilton, Department of Biochemistry, University of Western Ontario, London, ON, Canada). The bacteria were grown in shaking incubator at 37°C with 200 rpm until the optical density at 600 nm reached 0.5. After which, 0.5 mM IPTG was added and His6-ChAT was expressed for approximately 16 h at 18°C. Next, the cells were harvested and His6-ChAT was purified with “Ni-NTA fast start Kit” (Qiagen) following the manufacturer’s instructions. The elution buffer was exchanged to storage buffer [10 mM Tris pH 7.4, 500 mM NaCl, 10% (v/v) glycerol] using 30 kDa molecular weight cutoff Amicon Ultra concentrators (Merck Millipore). The purity and molecular weight of the protein were determined using SDS-PAGE electrophoresis. The total protein concentration was determined using DC Protein Assay (Bio-Rad). The purified protein was aliquoted and stored at −80°C.
ChAT activity was measured with our newly developed robust in-house fluorometric assay, using human rChAT protein. […] The reagents, choline chloride (C7017), acetyl coenzyme-A (ACoA, A2181), 7-diethylamino-3-(4-maleimidophenyl)-4-methylcoumarin (CPM) (C1484), thioflavin-T (ThT; T3516), and gelatin (G7041) were purchased from Sigma-Aldrich (St. Louis, MO, United States).
Then, 50 μL of a cocktail-A [dilution buffer containing 10 μM ACoA (final concentration) and 15 μM CPM (final concentration)] was added to each well. Immediately after adding the cocktail-A, the changes in fluorescence were monitored kinetically at 479 nm emission wavelength after exciting at 390 nm wavelength, at 1- to 2-min intervals for 15–20 min using a microplate spectrophotometer reader (Infinite M1000, Tecan).
Each Aβ peptide dilution was run in triplicates. On each 96-wells plate, several enzyme wells without Aβ were also included as positive controls and for estimating the activation level by Aβ peptides. Negative controls were wells without enzyme, but with all the other above-mentioned reagents. The kinetic rate of enzyme activity (as ΔRFU/min slope data) was calculated and processed using the GraphPad Prism 7 analysis software. The actual rate values as well as statistical analysis values (P-values) of ChAT activity at different Aβ concentrations or alone were calculated after fitting the curve with the linear regression function in the GraphPad Prism 7. […]

Data set [2] can be described thus: Thioflavin-T (ThT) fluorescence Aβ fibrillization assay. It is filed as physicochemical. To be noted: 800 ng/mL Aβ40, 100 ng/mL Aβ42; ThT 1 μM, pH 7.4, 37°C overnight, ex 450/em 485 nm, ChAT, choline and ACoA as in activity assay; method: quadruplicate, legend: mean ± SEM of three readings. Here is the method:
The ThT fluorescence assay was used to ensure that the Aβ peptides remained soluble during the aforementioned experimental setups. The ThT fluorescence assay was performed in 96-well black plates with a transparent bottom, as described before ([Kumar et al., 2016b]). […] The concentration of ChAT, choline, and ACoA were as used in the aforementioned experiments. To each well, 100 μL/well of a 1 μM ThT solution was added, the plate was then carefully sealed and the changes in fluorescence were monitored from the bottom of the wells, at an emission and excitation wavelengths of 485 nm and 450 nm, respectively, at 15-min intervals at 37°C for an overnight duration, using a microplate spectrophotometer reader (Infinite M1000, Tecan). Each Aβ peptide concentration was run in quadruplicate. Several wells with Aβ alone were also included as control, and wells without ThT were used as negative controls.

For data set [3], the system named is cultured cholinergic neurons. The note with it: high nanomolar concentration; ref Pedersen et al., 1996; Hoshi et al., 1997; Kar et al., 1998; Nunes-Tavares et al., 2012; cited from earlier work. The source says: The functional relationship between Aβ and the cholinergic system, especially ChAT, is quite complex and still need further exploration to gain a better understanding of Aβ native function and role in AD pathology.

In the case of gelatin [reference compound], in data set [1] (gelatin 0 to 4 mg/mL, mean ± SD of four readings), the “effect of gelatin on ChAT activity” value was “slight increase in the rate of ChAT activity within the 0.5–2 mg/mL gelatin concentration range; also recorded: no significant effect on ChAT activity”. Moreover, the “change in ChAT activity by gelatin” value in data set [1] (gelatin 0.5 to 4 mg/mL, Figure 4A, mean ± SD of four readings) is listed as −5% to +9.
For the substance “Aβ42: amyloid-β peptide, recombinant, purchased from rPeptide (Cat no. A-1166-1)”, the “difference in ThT fluorescence intensity vs control wells (no Aβ)” value in data set [2] was “no significant differences in the ThT fluorescence intensity”. Also, in data set [1], the “direction of effect on ChAT activity at high concentrations” value is “activation of ChAT”, the “effect on increases in ChAT activity at the higher Aβ concentration points” value was “started to decline” and the “concentration range giving the highest level of ChAT activation in the mixture” value lay in the range of 0.12 to 0.64 ng/mL. Moreover, in data set [1] (0.16 ng/mL Aβ42, rChAT 0.146 μg/mL, 150 μM choline chloride, 10 μM ACoA, 15 μM CPM, 30 min room temperature, pH 7.4, no gelatin, mean ± SD of ≥2 readings, control (ChAT alone) 53.8 ± 1.11, F = 98.5, p < 0.0001), the “rate of ChAT activity in the presence of Aβ42” value is on record as 71.6 ± 1.41 ΔRFU/min. Moreover, the “difference in slopes of ChAT rate vs gelatin control” value in data set [1] (1 mg/mL gelatin) is “statistically highly significant”. Moreover, in data set [1] (no gelatin), the “effect on ChAT activity at physiological concentrations” value is listed as “able to increase the activity of ChAT at physiological concentrations”. In data set [3], the “reduction in ACh synthesis” value is given as 40–50%.
On to “Aβ40: amyloid-β peptide, recombinant, purchased from rPeptide (Cat no. A-1153-1)”, for which the “difference in ThT fluorescence intensity vs control wells (no Aβ)” value in data set [2] is reported as “no significant differences in the ThT fluorescence intensity”. Also, in data set [1], the “direction of effect on ChAT activity at high concentrations” value is “inhibition of ChAT rather than activation”, the “effect on increases in ChAT activity at the higher Aβ concentration points” value is given as “started to decline” and the “concentration range giving the highest level of ChAT activation in the mixture” value was 1.3 to 6.4 ng/mL. Further, in data set [1] (6.4 ng/mL Aβ40, rChAT 0.146 μg/mL, 150 μM choline chloride, 10 μM ACoA, 15 μM CPM, 30 min room temperature, pH 7.4, no gelatin, mean ± SD of ≥2 readings, control (ChAT alone) 26.06 ± 1.07, F = 33.21, p < 0.0001), the “rate of ChAT activity in the presence of Aβ40” value is on record as 36.5 ± 1.48 ΔRFU/min. In addition, the “difference in elevations or intercepts of ChAT rate vs gelatin control” value in data set [1] (1 mg/mL gelatin, 6.4 ng/mL Aβ40, F = 9.2, p < 0.004) is reported as “significant”. Moreover, the “difference in slopes of ChAT rate vs gelatin control” value in data set [1] (1 mg/mL gelatin) is “not statistically significant”. In data set [1] (no gelatin), the “effect on ChAT activity at physiological concentrations” value is recorded as “able to increase the activity of ChAT at physiological concentrations”. Moreover, in data set [1] (no gelatin, dilution series 0–800 ng/mL Aβ40, 0–100 ng/mL Aβ42), the “concentration at which the increase in ChAT activity reaches a plateau” value is around 32 ng/mL. In data set [1] (some experiments vs others), the “overall effect on ChAT across experiments” value is recorded as “inhibited ChAT in some experiments, while in others it enhanced its activity”.
